Assay results reported in US20260027190A1, “OVARIAN TUMOR DEUBIQUITINASE OXIDATION AND USES THEREOF” (The University of Vermont and State Agricultural College, priority 2022, published 2026).

Legend:
[1] = test system: mouse tracheal epithelial (MTE) cells; test: Extracellular glutamate in cell culture supernatant of MTE cells; type: cell-based; details: direct administration of recombinant protein to MTE cells
Description: A regulator of GSH homeostasis is the transporter system xC-, which exports glutamate and concomitantly imports cystine in a 1:1 ratio. Once inside the cells, cystine is reduced to two cysteines, the latter being the rate limiting amino acid required for GSH synthesis. These relationships were examined further. […] To address whether IL1B-induced increases in GSH are system xC- dependent, two system xC- inhibitors, erastin (Er) and sulfasalazine (SAS) were used. Cells were pretreated for one hour, followed by IL1B treatment for 24 hours. Then, GSH levels were measured in cells exposed to increasing doses of Er or SAS (FIG. 2G). Extracellular glutamate levels in cell culture supernatant of cells pretreated with 0.5 micromolar Er (left) or 100 micromolar SAS (right) for 1 hour before IL1B stimulation were also measured (FIG. 2H). […] System xC- inhibition is known to induce ferroptosis, an iron-dependent mode of cell death characterized by increased lipid peroxidation. However, no changes in cell viability using erastin (5 micromolar) or sulfasalazine (500 micromolar) were detected (FIG. 2I; P-value*<0.05, ***<0.001, ****<0.0001).
Primary mouse tracheal epithelial (MTE) cells were isolated from C57BL/6NJ wild-type or C57BL6/NJ mice lacking Glrx1 gene and cultured. Cells were grown on collagen coated plastic plates or transwell inserts with media change every 2 days until confluency. For interleukin 1B (IL1B) treatment: cells were incubated in plain Dulbecco's Modified Eagle Medium (DMEM): F12 media containing 6 mM glucose and 2 mM glutamine overnight followed by stimulation with 10 ng/ml IL1B or 0.1% bovine serum albumin (BSA) in phosphate buffered saline (PBS) (vehicle control) for 24 hours. Treatment with crastin, sulfasalazine or BSO occurred 1 hour before IL1B stimulation. Media and cells were collected for further analysis. For growing H522 and OTUB1-CRISPR-H522 cells: Roswell Park Memorial Institute (RPMI) media supplemented with 10% fetal bovine serum (FBS) and 1% pen/strep was used to grow the cells. Plasmid over-expression and OTUB1 knock-down experiments were done when cells were 60-70% confluent.
Glutamate in media was measured using Biovision kit following manufacturer's protocol.

[2] = test system: mouse tracheal epithelial (MTE) cells; test: Total PSSG in MTE cells treated with recombinant GLRX; type: cell-based; details: direct administration of recombinant protein to MTE cells
Procedure: OTUB1 was one of the PSSG targets detected in IL1B-stimulated epithelial cells raising the possibility that S-glutathionylation of OTUB1 affects the stability of SLC7A11. To investigate this, immunoprecipitation of GSH followed by Western Blotting of OTUB1 in MTE cells treated with vehicle or IL1B was performed. Dithiothreitol (DTT) was incubated with cell lysates prior to immunoprecipitation as a negative control. OTUB1 levels from whole cell lysates were used as the input control. Increases in OTUB1 S-glutathionylation (OTUB1-SSG) in response to IL1B were observed, with further increases occurring in cells lacking Glrx (FIG. 4G), consistent with the role of GLRX as a deglutathionylating enzyme. Western blots were performed using cells treated with the WT- or C23S-mutant GLRX recombinant protein to examine the presence of glutaredoxin (FIG. 4H) and total PSSG (FIG. 4I) (P-value*<0.05, **<0.01, ***<0.001, ****<0.0001). […] Glutathione was evaluated in MTE cells treated with recombinant WT- or C23S-mutant GLRX (FIG. 4J) and glutamate in cell culture supernatant of MTE cells treated with WT or the C23S mutant GLRX was also evaluated (FIG. 4K). […]
Cell lysates were prepared in 100 mM potassium phosphate buffer containing 0.6% sulfosalicylic acid, 1 mM ethylenediaminetetraacetic acid (EDTA) and 0.01% triton-x-100. […] Kinetic absorbance was measured every minute at 412 nm for 20 minutes. […]

OTUB1 = test: OTUB1-SSG: GSH immunoprecipitation followed by OTUB1 Western blot; type: cell-based, mouse; details: cells treated with recombinant protein
Procedure: OTUB1 was one of the PSSG targets detected in IL1B-stimulated epithelial cells raising the possibility that S-glutathionylation of OTUB1 affects the stability of SLC7A11. To investigate this, immunoprecipitation of GSH followed by Western Blotting of OTUB1 in MTE cells treated with vehicle or IL1B was performed. Dithiothreitol (DTT) was incubated with cell lysates prior to immunoprecipitation as a negative control. OTUB1 levels from whole cell lysates were used as the input control. Increases in OTUB1 S-glutathionylation (OTUB1-SSG) in response to IL1B were observed, with further increases occurring in cells lacking Glrx (FIG. 4G), consistent with the role of GLRX as a deglutathionylating enzyme. Western blots were performed using cells treated with the WT- or C23S-mutant GLRX recombinant protein to examine the presence of glutaredoxin (FIG. 4H) and total PSSG (FIG. 4I) (P-value*<0.05, **<0.01, ***<0.001, ****<0.0001). GAPDH was used as a loading control. Glutathione was evaluated in MTE cells treated with recombinant WT- or C23S-mutant GLRX (FIG. 4J) and glutamate in cell culture supernatant of MTE cells treated with WT or the C23S mutant GLRX was also evaluated (FIG. 4K). […]

human LUAD organoids = test: Human LUAD organoid viability / cisplatin-induced killing; type: cell-based
Description: To date, the first line therapy for advanced KRAS-mutant lung adenocarcinoma (LUAD) consists of platinum-based chemotherapy in combination with the immune checkpoint inhibitor, pembrolizumab, or pembrolizumab alone in patients whose tumors have PD-L1 expression equal or greater than 50%. […] However, tumor resistance to platinum and toxicity is limited in its effectiveness, necessitating the development of strategies to increase sensitivity to cisplatin-induced killing and increase responsiveness to immune checkpoint inhibitors. Increases in GSH contribute to resistance of cisplatin-induced killing. In one study we administered 20 μg/ml of GLRX to human LUAD organoids in the presence or absence of cisplatin.

KRAS-mutant A549 cells = test: A549 cell viability / cisplatin-induced killing; type: cell-based

B1: GLRX: recombinant wild-type glutaredoxin protein, deglutathionylating enzyme, administered directly to cells (protein, UniProt P35754 2-106, looked up)
Glutaredoxin-1: AQEFVNCKIQPGKVVVFIKPTCPYCRRAQEILSQLPIKQGLLEFVDITATNHTNEIQDYLQQLTGARTVPRVFIGKDCIGGCSDLVSLQQSGELLTRLKQIGALQ
extracellular glutamate [1]: decreased
overall PSSG [2]: decreased
OTUB1-SSG (OTUB1 S-glutathionylation) (OTUB1): decreased
viability of human LUAD organoids (human LUAD organoids; 20 μg/ml GLRX alone): did not affect
sensitivity to cisplatin-induced tumor organoid killing (human LUAD organoids; 20 μg/ml GLRX with cisplatin, compared to cisplatin only): strongly increased
viability (KRAS-mutant A549 cells; GLRX alone): did not decrease
cisplatin-induced killing (KRAS-mutant A549 cells; GLRX with cisplatin): promoted
